Tests used:
MS2 coat protein [1] = assay: apparent KD of MS2 coat protein, switch ON state; designed switch direction (-1 OFF switch, 1 ON switch): 1; higher = weaker reporter binding; conditions: FMN input: 0 or 200 uM; Eterna round: R93 (includes R88 designs)
Outline: (§1)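 Designed RNA switches were transcribed on-chip from Illumina sequencing clusters and titrated with SNAP-549-labelled MS2 coat protein in twofold steps from 0.7 or 1.5 nM up to 3 µM. Each step lasted 0.8–1.5 h at first and 10–20 min by the end, in 100 mM Tris-HCl pH 7.5, 80 mM KCl and 4 mM MgCl2, without or with constant ligand. Apparent KD is the median, for each design, of fits to normalised cluster binding curves.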

MS2 coat protein [2] = assay: apparent KD of MS2 coat protein, switch OFF state (with FMN for OFF switches, without FMN for ON switches); designed switch direction (-1 OFF switch, 1 ON switch): 1; higher = weaker reporter binding; conditions: FMN input: 0 or 200 uM; Eterna round: R93 (includes R88 designs)
Outline: as §1

Sequence | apparent KD of MS2 coat protein (MS2 coat protein [1]) [nM] | apparent KD of MS2 coat protein (MS2 coat protein [2]) [nM]
AGCACGUGAUUGGAGGAUAUGUAGUAAGCAACAUGAGGAUCACCCAUGUCUGAGGCUGAAAAGCAGCAGAAGGCCGAUACAACCA [SS2-1.5] | 18.2 | 19.2
AGGAAACAUGAGGAUCACCCAUGUAAAAAUAUGGGAGGAUAUACAAACAGGAAAGUGAGAGUAGAAGGCCUAAAAG [Garnet 19] | 42.4 | 231
AGGAAACAUGAGGAUCACCCAUGUAAAAAUAUGGGAGGAUAUUGAAAGACGAAAGUCAAACAAGAAGGCCUAAAAG [Garnet 21] | 24 | 128
AGGAGACAUGAGGAUCACCCAUGUGAGAAGAGGCGAGGAUAUCGAAAGAAAGAAGAGAAACGAGAAGGCGCGAGAG [salish99-SS1-025] | 28.4 | 37.4
AUAAAACAUGAGGAUCACCCAUGUAAAAAUAUGGGAGGAUAUACGAAAUAAAAUAAAUACGUAGAAGGCCUAAAAA [SS! MT 20] | 20.2 | 111
AUAAAACAUGAGGAUCACCCAUGUAGAAAUAUGGGAGGAUAUACGAAGACGAAAGUCGAAGUAGAAGGCCUAAAAG [Mat - Same State 1 - Meechl mod - D116] | 27.7 | 67.7
AUAAAACAUGAGGAUCACCCAUGUCCGACAAAUCAAGGAUAUGAGAGCCAAACCAGGCUGUUAGAAGGUGAAAGAA [Edorlebere] | 154 | 182
AUAAAACAUGAGGAUCACCCAUGUCCGACAAAUCAAGGAUAUGAUAGCCAAACCAGGCCGUUAGAAGGUGAAAGAA [Edgeza] | 276 | 147
AUAAAUAAAAGUGAGGAUAUCCAAAAAAAAACAUGAGGAUCACCCAUGUAAAAGAAAAUAAAAUGGGAGAAGGCACAAAAUAAAU [SS2 M 10] | 11.9 | 26.2
AUAAUAAUAAGGUAGGAUAUACUAAAGUAAACAUGAGGAUCACCCAUGUAAAGAAAAAAACUCAUGUAGAAGGGCCAGAAAUAAA [moonwalk 3] | 53.2 | 62.3
AUAAUACAUGAGGAUCACCCAUGUCAAGGCUAUCAAGGAUAUAGACAACGUAGCGGUUGACUAGAAGGUGAGAAAU [Onxeanis] | 124 | 78.8
AUAUGCAUAGACAAGGAUAUCGGUCUAGAAACAUGAGGAUCACCCAUGUAAGUGAAAAUCUGUAAUGAGAAGGUGUUGUUGGGUU [Isan] | 75 | 89.4
AUGAAAGUAACACAGGAUAUCGAGGAUACAACAUGAGGAUCACCCAUGUACAUACGAACGUAUAACGAGAAGGGUGGAUGAUCUUC [ss2] | 140 | 62.8
CAGGACAUAGGAUAGGAUAUAUGAAUAAUUACAUGAGGAUCACCCAUGUCCAUUUAUAUGGGAACAUAGAAGGGUUGUAGUUAUG [Mat - Same state - Malcolm Mod - D143] | 515 | 388
CCGAUACAUGAGGAUCACCCAUGUUAGGUAGAACAAGGAUAUCUAGAUAGAUAAAAAUAUAGAGAAGGUGUAUAAC [JR_SS001_Sub208] | 17.1 | 26
CCGAUGGUAUACUAGGAUAUGGGCGCCCUUACAUGAGGAUCACCCAUGUUAUCACAAAUCCGCGGCCAGAAGGAGUUCAUGGGAG [Ustiririra] | 62.8 | 151
CGAAAGGAGAGAGAGGAUAUCCAAAGGAAAACAUGAGGAUCACCCAUGUAGAAGGUAGGAGAUUGGGAGAAGGCUCAAGAGAGAC [salish99-ss2-148] | 24 | 48.2
CGGAGACAUGAGGAUCACCCAUGUGAGAAGAGGCGAGGAUAUUGAAAGAAAGAAGAGAAAUGAGAAGGCGCGAGCC [salish99-SS1-083] | 55.3 | 38.1
CGGCUAAACGGGCAGGAUAUGUUCACUAGAACAUGAGGAUCACCCAUGUGAAACUGGCGAUAAUCGCAGAAGGGCCCGUGCACGA [Atensoin] | 17.6 | 61.3
